According to patent publication US9144594B2, “Cathepsin L mediated diseases and associated methods and products” (University of Miami, priority 2005, dated 2015):
Residue numbers refer to the chain shown, from its start. In names and notes the source's numbering stands.

B1: R725A (podo): podocin promoter-driven dynR725A vector, gene delivery (protein, UniProt Q05193 1-864, looked up, variant R725A)
Dynamin-1: MGNRGMEDLIPLVNRLQDAFSAIGQNADLDLPQIAVVGGQSAGKSSVLENFVGRDFLPRGSGIVTRRPLVLQLVNATTEYAEFLHCKGKKFTDFEEVRLEIEAETDRVTGTNKGISPVPINLRVYSPHVLNLTLVDLPGMTKVPVGDQPPDIEFQIRDMLMQFVTKENCLILAVSPANSDLANSDALKVAKEVDPQGQRTIGVITKLDLMDEGTDARDVLENKLLPLRRGYIGVVNRSQKDIDGKKDITAALAAERKFFLSHPSYRHLADRMGTPYLQKVLNQQLTNHIRDTLPGLRNKLQSQLLSIEKEVEEYKNFRPDDPARKTKALLQMVQQFAVDFEKRIEGSGDQIDTYELSGGARINRIFHERFPFELVKMEFDEKELRREISYAIKNIHGIRTGLFTPDMAFETIVKKQVKKIREPCLKCVDMVISELISTVRQCTKKLQQYPRLREEMERIVTTHIREREGRTKEQVMLLIDIELAYMNTNHEDFIGFANAQQRSNQMNKKKTSGNQDEILVIRKGWLTINNIGIMKGGSKEYWFVLTAENLSWYKDDEEKEKKYMLSVDNLKLRDVEKGFMSSKHIFALFNTEQRNVYKDYRQLELACETQEEVDSWKASFLRAGVYPERVGDKEKASETEENGSDSFMHSMDPQLERQVETIRNLVDSYMAIVNKTVRDLMPKTIMHLMINNTKEFIFSELLANLYSCGDQNTLMEESAEQAQRADEMLRMYHALKEALSIIGDINTTTVSTPMPPPVDDSWLQVQSVPAGRRSPTSSPTPQRRAPAVPPARPGSRGPAPGPPPAGSALGGAPPVPSRPGASPDPFGPPPQVPSRPNRAPPGVPSRSGQASPSRPESPRPPFDL
modifications: podocin promoter vector
notes: podocin promoter-driven dynR725A vector, gene delivery
B2: L356Q (podo): podocin promoter-driven dynL356Q vector, gene delivery (protein, UniProt Q05193 1-864, looked up, variant L356Q)
Dynamin-1: B1 Dynamin-1 with L356Q, A725R
modifications: podocin promoter vector
notes: podocin promoter-driven dynL356Q vector, gene delivery

Legend:
[1] = test system: dynamin-dynamin interactions; experiment: FLIM analysis of dynamin-dynamin interactions in live COS cells; type: cell-based; conditions: for dynamin-dynamin interactions measured by FLIM, in words: COS cells pre-treated
Source text: FLIM is based on the fluorescence resonance energy transfer (FRET) between the donor and acceptor that shortens the lifetime of the donor if the acceptor distance is within ≈100 Å (10 nm). […] To this end, dynamin was tagged with either ECFP or EYFP on its N- and C-termini. Fusion proteins were expressed in COS cells, because these cells are flattened and have minimal background autofluorescence, which allows clear visualization of cells by wide-field microscopy.
The observed decrease in fluorescence lifetime of CFP-dynamin in cells expressing EYFP-dynamin could result from interactions between dynamin monomers within tetramers/dimers, or from interactions between assembled tetramers/dimmers into higher order structures (FIG. 8C). To distinguish these two possibilities, we used FLIM to examine dynI690K. […] The longer average lifetimes of dynI690K than dynwt argue strongly that the assay detects higher order dynamin self-assembly and not tetramer formation.

[2] = test system: dynamin-dynamin interactions; experiment: FLIM analysis of dynamin-dynamin interactions (self-assembly) in podocytes; type: cell-based, mouse; conditions: Table 4; donor GTPase-a488, acceptor Hudy1-a568; in ps
Protocol: In one embodiment the cell-based assay to monitor dynamin-dynamin interactions is performed on a cultured mouse podocyte cell line and the readout of dynamin self-assembly using fluorescence lifetime imaging microscopy (FLIM). FLIM is based on the fluorescence resonance energy transfer (FRET) between the donor and acceptor that shortens the lifetime of the donor if the acceptor distance is within ≈100 Å (10 nm). […] The assay is based on overexpressing dynamin in podocytes, and subsequently staining fixed cells with monoclonal anti-dynamin antibodies that have been conjugated with donor or acceptor florophores. In one embodiment of the invention, Alexa-488 is used as the donor florophore and Alexa-568 is used as the acceptor florophore. In yet another embodiment the donor florophore is dynamin conjugated enhanced-cyan fluorescence protein (ECFP) and the acceptor is dynamin conjugated enhanced yellow-fluorescence protein (EYFP). It will be appreciated by the person of ordinary skill in the art that numerous combinations of FRET donor and acceptors can be used, which are readily available and known. In one embodiment, the FLIM assay is carried out in COS cells and the donor can be selected from the list consisting of: ECFP-WT, ECFP-1690K, ECFP-K44A, ECFP-K694A, and the -acceptor can be selected from the list consisting of: EYFP, EYFP-WT, EYFP-K44A, EYFP-1690K, EYFP-K694A. In yet another embodiment the FLIM assay is performed in podocytes and the donor is GTPase-Alexa488 and the acceptor is selected from the list consisting of: DAM-Alexa568, GTPase-Alexa568, and Hudyl-Alexa568. Cells are stained by mixing both donor and acceptor florophores in equal amounts, and examining the spatially-restricted lifetime shortening in cells detects the localization of dynamin-dynamin interactions in cells. Since dynamin-dynamin interactions are vital for the function of the podocyte, it will be appreciated by the person of ordinary skill in the art that this assay can now be used to screen peptides, small molecules or drugs which can affect these molecular interactions. For example such molecules are cytocholasin D, jasplakinolide, colchisine, dynK44A, dynK694A, dynWT, dynI690K, dynR725A (SEQ ID NO.4), dynL356Q, G358V, (SEQ ID NO.3) any combination thereof, etc.
In order to test the hypothesis that self-assembly of dynamin was protecting its cathepsin L processing in cultured podocytes, dynamin self-assembly in live cells was examined using fluorescence lifetime imaging microscopy (FLIM). FLIM is based on the fluorescence resonance energy transfer (FRET) between the donor and the acceptor that shortens the lifetime of the donor if the acceptor distance is within ≈100 Å (10 nm). […] A FLIM-assay was developed that specifically detects dynamin self-assembly into the higher order structures in podocytes. The assay is based on overexpressing dynamin in podocytes, and subsequently staining fixed cells with monoclonal anti-dynamin antibodies that have been conjugated with either Alexa-488 (donor florophore) or Alexa-568 (acceptor florophore). Cells are stained by mixing both florophores in equal amounts, and examining lifetime of Alexa-488. […] Importantly, FRET only occurred in the vicinity of the membrane. […] Thus, both dominant activating mutants, dynK694A and dynR725A, are impaired for assembly into a supramolecular structures in podocytes under normal conditions. […] Loss of FRET measured FLIM correlates with the loss of p40 proteolytic fragment in cultured podocytes. And presence of p40 in cells expressing dynR725A under normal conditions correlates with the lack of dynR725A assembly detected by FLIM. The opposite is true for the dynWT; lack of p40 under control conditions when FLIM is present, and appearance of the p40 upon LPS treatment with no measurable FRET. […] Finally, proteolytic processing of dynamin after LPS treatment is also observed in vivo. […]

[3] = test system: LPS induced mouse proteinuria model; experiment: LPS induced mouse proteinuria model, protein in urine (prevention and reversal by dynamin gene delivery); type: in vivo; conditions: Table 5 Reversal, 2xLPS
Protocol: Next, it was examined whether gene transfer of dynR725A and dynL356Q, G358V was able to protect from LPS induced changes of podocyte FP and thus proteinuria (FIGS. 6A-B); (Table 2B). […] Whereas the application of wildtype dynamin was unable to protect from LPS induced podocyte FP effacement (data not shown) and proteinuria (0.63 mg/ml after 24 hours, p<0.05 and 1.18 mg/ml after 48 hours, p<0.04); table 2B, the co-administration of R725A together with LPS completely abolished the development of proteinuria after 24 hours (0.20 mg/ml). Podocyte FPs remained normal at this timepoint (FIG. 6B). The decline of R725A expression in podocytes was then associated with the development of proteinuria (1.25 mg/ml, 48 h). At this time point, there was noticeable podocyte FP effacement. The application of the cathepsin L resistant dynamin mutant L356Q, G358V together with LPS conferred a partial protection from proteinuria (0.47 mg/ml, P<0.05). This protection was associated with normal appearing podocyte FP (FIG. 6C). Although this protection was not as strong as the one provided by dynR725A, it was prolonged and was still present even after the second dose of LPS ([…], P<0.04). This observation argues that lower expression levels of dynL356Q, G358V are required to protect from LPS induced FP effacement but the presence of dynR725A has the most powerful protection.
Another set of experiments was carried out to study whether dynR725A and dynL356Q, G358V are also useful once there is already established podocyte damage and proteinuria (reversal experiments), (FIGS. 6C, D); (Table 2C). First LPS was injected in mice at 0 and 24 hours and the course of urinary protein loss was documented. On the peak phase of proteinuria at 48 hours after the first LPS injection, either delivery solution (control), dynR725A or dynL356Q, G358V dynamin mutants were transferred and the morphology of podocyte FP was analyzed and the degree of proteinuria was determined 10 hours later when there was strong expression of the transferred gene in podocytes. […] A dramatic reformation of podocyte FPs was also observed (FIG. 6C). The same observation was true for L356Q, G358V (FIG. 6D) which was able to reduce proteinuria from 1.20 mg/ml to 0.71 mg/ml). From the in vitro data it was determined that R725A starts to self assemble into higher order structures in the LPS setting which render dynamin assembly domain protected from cathepsin L cleavage. […] In addition, dominant activating dynR725A proves useful because despite causing podocyte damage in wildtype mice, it can resist cathepsin L cleavage by self assembly in the LPS setting and have strong activity by impairment in its GTP hydrolysis.
If dynamin is a target of CatL, then dynL356Q and dynR725A, which are resistant to CatL cleavage, might protect kidneys from LPS. In control mice, two injections of LPS led to FP effacement (FIG. 21C) and a large increase in proteinuria (FIG. 21E, Con).
Next it was examined whether dynL356Q and dynR725A can reverse already established proteinuria. LPS was injected into mice at 0 and 24 hours. At the peak of proteinuria at 48 hours, mice were injected with dynWT, dynL356Q, or dynR725A, and the degree of proteinuria was analyzed 12 hours post injection. […] The rescue could be achieved with both podocin and CMV-driven protein expression.
All animal studies were approved by the MGH Subcommittee for Research Animal Care. C57BL6 mice were obtained from Jackson Laboratory (Bar Harbor, Me.). CatL−/− mice are in a pure C57BL6 background (Nakagawa et al., Science 280, 450-453 (1998)). LPS induced mouse proteinuria model was utilized as previously described (Reiser et al., J Clin Invest 113, 1390-1397 (2004)). Rat PAN nephrosis model was induced by a single intravenous injection of PAN (180 mg/kg body wt; Sigma-Aldrich, St. Louis, Mo.) (Kim et al., Am J Physiol Renal Physiol 286, F922-935 (2004)). […]

mice = experiment: Protein in urine after in vivo gene delivery of dynamin mutants into healthy mice (Bradford); parameters: species or system mouse; conditions: Table 5 Basic Phenotype, podocin-driven vectors
Protocol: Next, the level of urinary protein loss following gene delivery of dynamin mutants was examined (Table 2). […] The expression of K44A was associated with severe proteinuria (1.18 mg/ml) at peak gene expression time of 10 hours post injection. The reduction in gene expression was paralleled by a reduction in proteinuria (0.77 mg/ml). Gene transfer of dynR725A caused an increase in proteinuria (0.58 mg/ml). Although this was not a significant increase, it is probable that it is a consequence of the partial podocyte FP effacement seen after gene transfer of dynR725A, and due to increase in the stress fibers formation observed in cultured podocytes.
To explore whether functional dynamin is required for the maintenance of FP morphology in healthy kidneys, it was examined whether expression of dominant negative dynK44A disrupts podocyte function. […] In contrast, podocin driven expression of dynK44A, the dynamin mutant that cannot bind GTP, caused FP effacement (FIG. 21B) and proteinuria (1.1±0.26 mg/ml) at the peak of gene expression […] after gene delivery (FIGS. 21D and 25C). […] In other words, tight regulation of the life-time of the GTP-bound form of dynamin appears to be required for normal FP morphology and ultrafiltration.
CatL plasmids encoding short and long CatL (Goulet et al., Biol Chem 387, 1285-1293 (2004)), Dyn1 plasmids (pcDNA-driven) or p2.5 Podocin-driven (Moeller et al., Genesis 35, 39-42 (2003)) were introduced into mice (n>10, each construct) using the TransIT in vivo gene delivery system according to the manufacturer's instruction (Mirus Bio Corporation, Madison, Wis.). 10 and 24 h after gene delivery, proteinuria was assessed by Multistix 8 SG strips (Bayer Corporation, Elkhart, Ind.), and Bradford protein assay (Sigma, Saint Louis, Mo.). From the same urines the protein creatinine ratio was determined with Albuwell M and Creatinine Companion protein creatinine ELISA kits (Exocell Inc., Philadelphia, Pa.).

Row | Molecule | dynamin-dynamin interactions measured by FLIM, in words [1] | Mean Lifetime (γ1) ps ([1]; Table 3, donor CFP-WT, acceptor YFP-WT, cells treated with the substance) [ps] | Mean Lifetime (γ1) [2] | Protein in the urine ([3]; t = 0) [mg/mL] | Protein in the urine ([3]; t = 48 h) [mg/mL] | Protein in the urine ([3]; t = 58 h) | Protein in the urine (mice; t = 0) [mg/mL] | Protein in the urine (mice; t = 14 h) | Protein in the urine (mice; t = 24 h)
1 | b-methyl-cyclodextrin [MBCD] | occurred unchanged | 916 ± 427 | – | – | – | – | – | – | –
2 | COC(=O)Nc1nc2ccc(C(=O)c3cccs3)cc2[nH]1 [nocodazole] | had no effect on dynamin oligomerization | – | – | – | – | – | – | – | –
3 | COc1cc2c(c(OC)c1OC)-c1ccc(OC)c(=O)cc1[C@@H](NC(C)=O)CC2 [Colchisine, reference compound] | – | – | 2295 ± 98 | – | – | – | – | – | –
4 | B1 | – | – | – | 0.23 ± 0.07 | 1.26 ± 0.34 | 0.49 ± 0.23 (1.6 × 10^−4) mg/ml | 0.29 ± 0.10 | 0.79 ± 0.22 (4.4 × 10^−5) mg/ml | 0.45 ± 0.18 (3.6 × 10^−2) mg/ml
5 | B2 | – | – | – | 0.29 ± 0.05 | 1.36 ± 0.49 | 0.73 ± 0.29 (6.9 × 10^−3) mg/ml | 0.24 ± 0.05 | 0.45 ± 0.12 (2.5 × 10^−3) mg/ml | 0.35 ± 0.018 mg/mL
